The results in this text go back to a protein production outcome set (Wang et al. 2014).

The series in a line: label from the status in PepcDB records.
On to “MLIKKIDLHKDPIRKLFFYYFIPLAFSMISLSTYSMIDGMFVGKKLGKEAIAAVNIAWPIFPGLIAYELLFGFGAASIVGYFLGQNKTHRARLVFSSVFYFVAISAFILSMALLPFSETIARFFGSNDALLSMSKRYIEIILMGAVFMVLHPLADVFVVNDKRPILAMVAMLIGSLANIFFNYLFIFVLKVGVQGSAIATVIGHAIGVLVLMQHFWRKKGQLYFIKRFSLSSVISSAKSGVPQSTAEFSASVMILLFNTAIMHTAGERFVSMYGIVMYNAIIFFTTLFAISQGIQPIASFSYGARNLERVKEVFVFGLKAAFCIGIVFYGAYYFLDEFLIKLYLQPSEQDPLFMQETKRAMNIYYVGYIFLGMTLLCAVFFQSIQRTKSSFIITLSHTLGFIVILLPILSHFYGINGVWVTYPIAQFLAFLVALGVTYYEIKKGVFTTYKEKNPIALKT”, for which the protein production entry is recorded as “failed”.
With “MLEKLLSAIKQKVSNYFLGVLPKSYSMSEENNILGLYDEHFLLTKNENLVGILRLEGVSYTHLSTEQLQDLFTERQMALDSLEKVVARLVVKRRKIDHQQNIQSDSQYLQAILNQFENKEVYENQYFLVLESTHSLHGVLEHKKKSLMHANRENFKDILSYKAHFLQETLKSLEIQLKNYAPKLLSSKEVLNFYAEYINGFDLPLKPLVGGYLSDSYIASSITFEKDYFIQESFNQKTYNRLIGIKAYESERITSIAIGALLYQETPLDIIFSIEPMSVHKTLSFLKERAKFSMSNLVKNELLEYQELVKTKRLSMQKFALNILIKAPSLENLDAQTSLVLGLLFKENLVGVIETFGLKGGYFSFFPERIHLNHRLRFLTSKALACLMVFERQNLGFKANSWGNSPLSVFKNLDYSPFLFNFHNQEVSHKNAKEIARVNGHTLIIGATGSGKSTLISFLMMSALKYQNMRLLAFDRMQGLYSFTKFFKGHYHDGQSFSINPFCLEPNLQNLEFLQSFFLSMFDLAPSRDKEALEDMNAISSAIKSLYETLYPKAFSLLDFKETLKRTSSNQLGLSLEPYLNNPLFNALNDAFNSNAFLNVINLDTITQNPKDLGLLAYYLFYKILEESRKNDSGFLVFLDEFKSYVENDLLNTKINALITQARKANGVVVLALQDIYQLSGVKNAHSFLSNMGTLILYPQKNARELKHNFNVPLSETEISFLENTPLYARQVLVKNLGNGSSNMIDVSLESLGRYLKIFNSDSSHVSKVKALQKDYPTEWREKLLRSLEHHHHHH” the entry was “failed”; with “MFMGKLPHQADLIGALIEAAGANGIRAGAIQVIGALQGAKLGFYDQWSKSYRELPFAKPLEIVSGLGNISLRDGRPFVHLHLSISDEEGKVFGGHALEGCTIFAAEYAIMPLPGSAPVRVFDETTGLFLWEREQYPASGQKGLSPELERALLNPLEHHHHHH”, “not failed”; with “MLLSVIITAQGRKGYVMQAVRSVLSQNIPKEDFEIIVSKDFKDDVIDEFLDGRAIVLNENHIRSGSRVASAVLQSSGKILVFLDDDDLFYPGKLREVKIVFSEMGVDYFKNSVKPVAESGDTVSYYQPAIKSDIFVKEPNEQDIRKLLKLRAGFNSSSISLKKDILVGYLDVLSKINLAVDSFYFFLYMSHSRPIYYSKKTLSLYRVLSKSTSRDVRNINAYAEFKSKFYELYSRDFETISEMASDGPCSKLAKTEFHLQMAYKWIFNTYRKEERPRMLHTLASSIYSHDPFIALPWPSFMKKIVQRREYFREKKLLSENTELEHHHHHH”, “failed”.
Consider “MKEKDKWIKNFRTRMEGYSEPAPADLWEQLEKELDTVPKVIPMWRRWQAVAAVALLVVVSSLTVWFWQSPSANYLEKQSAELNVMHEPDELVPGSITPEQPMALVVPAARSGKKQHVKVGGVAKAEALAAEQEVLLNKEVEEIQIEENYIEEQKEESVIVEQKQQKQAGRSSYSAAKTNYAYVAPHRKKDRNWSVGLSTGNGTFSSSTSMDGYLPLPNGTRNATMNSAYGVETRAEIDKLVQFNNLSEGKDAQSDIKYRMPVTFGASLRFDLSDDWAVETGVTYTQLSSETRSGTEKNNYGWEEKLHYVGIPLKVNRNIWSNKRFEVYASAGGAVEKCVSGKRSIIGSVSTSNAGKDEQFSGGEENVKVKPLQWSLSAAAGAQFKITEKLGIYAEPGVVYYFDDGSNVNTIRKEHPFNFNIQLGVRFTLPK”, for which the protein production result is on record as “failed”.
The entry for “NEVDDMDTSDTQWGWFYLAECGKWHMFQPDTNSQCSVSSEDIEKSFKTNPCGSISFTTSKFSYKIDFAEMKQMNLTTGKQRLIKRAPFS” is “not failed”; for “TKALNFTYTLDSGVKGTLYQFPAEYTLLFINNPGCHACAEMIEGLKASPVINGFTAAKKLKVLSIYPDEELDEWKKHRNDFAKEWTNGYDKELVIKNKNLYDLRAIPTLYLLDKNKTVLLKDATLQKVEQYLAERG” it is “not failed”.
As for “MNRFLTSIVAWLRAGYPEGIPPTDSFAVLALLCRRLSHDEVKAVANELMRLGDFDQIDIGVVITHFTDELPSPEDVERVRARLAAQGWPLDDVRDREEHA”, the protein production result is “not failed”.
For the sequence “MPQVDPELFDRGQFQAELALKSSPIAAFKKAIRQFREVLDNRFNSGRDIRRLIEDRAWCVDQILQQAWQRFDWGDDADIALVAVGGYGRGELHPYSDVDLLILLDSEDQESFREPIEGFLTLLWDIGLEVGQSVRSVQQCAEEARADLTVITTLMECRTICGPDSLRQRMLQVTGSAHMWPSKEFFLAKRHEQQRRHAKYNDTEYNLEPNVKGSPGGLRDIQTILWMARRQFGSLNLHALVREGFLVESECSMLASSQEFLWRVRYALHMLAGRAEDRLLFDHQRSIARLFGYEDNDVKLAVERFMQKYYRVVMAISELNDLIIQHFEEVILPCEQPVQIQPLNSRFQLRDGYIEVTHPNVFKRTPFALLEIFVLMAQHPEIKGVRADTIRLLRDSRHLIDDEFRHDIRNTSLFIELFKSSQGIHRNLRRMNRYGILGRYLPEFGHIIGQMQHDLFHIYTVDAHTLNLIKHLRKLNRPEMAEKYPLASKIIDRLPKPELIYIAGLYHDIAKGRGGDHSELGAVDAEAFCQSHQLPLWDTQLVSWLVQNHLVMSTTAQRKDLSDPQVIFDFAQLVGDQTHLDYLYVLTVADINATNPTLWNSWRASLLRQLYTETKRALRRGLENPVDREEQIRQTQTAALDQLVRNGIDQDDAEQLWSQLGDDYFLRHTAGDVAWHTEAILQHPDDGTPLVLIKETTQREFESGSQIFIYAADQHDFFAVTVAAMDQLNLSIQDARIITSTSQFTLDTYIVLDADGDSIGNNPERIAEIREGLIDALKNPDDYPTIIQRRVPRQLKHFAFAPQVTISTDALRQVSVLEVIAPDRPGLLARIGGIFLDFDLSVQNAKIATLGERVEDVFYITDARNQPLADPDLCKRLQAALVEQLSQDNGRDT”, the protein production entry is listed as “failed”.
As to “MNGRVDYLVTEEEINLTRGPSGLGFNIVGGTDQQYVSNDSGIYVSRIKENGAAALDGRLQEGDKILSVNGQDLKNLLHQDAVDLFRNAGYAVSLRVQHRLQVQNGPI”, the protein production entry is on record as “not failed”.
For the sequence “MSGVRFPSGSLKDVRFFLHLFFSSKYGIIYVRYLDEEGTIMKQIIISVGREFGSGGHIVAQKLAEHYDIPIFNKELLEEMARKEGYSEKALEKYDEKPVNFGFMPLPYAGGNIPIEQEIAMKQFEFIKNKADAGESFVIVGRCADEILAYNPNLVSVFITGDRESKIARVMDREGLDRKQAINKMKRMDKIRKTYHNFYCRNKWGDSRGYDICINTGKTDFDTAKNMVVECVDKLKERSE”, the protein production entry was “failed”.
“MASMDVEEFIGQNRQLADRVEAFRGFSESDKHWKGRREFIFRNMADFPEPQVDHLLALSMVWQNHVFMGCRYSSELLQRVMEMAEGIEVEDAPVFKTRDEIIRQQKQR”: the protein production result is on record as “failed”.
The entry for “MNEQPNNENITQSASRDLQIIEDDAFSYEGYQVVRGEFFAHTYEPSFTFNANKVSVNTACIKKLPQTDFVQILVNPDEKKLAVRPCQEDEKDSFRWCSATKKRSPRQITCRIFFAKVISLMEWNPSYRYKLLGKLIRSDNELLFVFDLTTPEIYVRAEKEDGKIKTSRTPTYPAEWQNQFGVPVEEHQSNLQINMFDGYAVFGILEHHHHHH” is “not failed”; for “MAYSACFLHQSALASSAARSSSSSSSQRHVSLSKPVQIICKAQQSHEDDNSAVSRRLALTLLVGAAAVGSKVSPADAAYGEAANVFGKPKTNTDFLPYNGDGFKVQVPAKWNPSKEIEYPGQVLRFEDNFDATSNLNVMVTPTDKKSITDYGSPEEFLSQVNYLLGKQAYFGETASEGGFDNNAVATANILESSSQEVGGKPYYYLSVLTRTADGDEGGKHQLITATVNGGKLYICKAQAGDKRWFKGARKFVESAATSFSVA” it is “failed”.
With “MNLESITVVLPTRNEAGNIGAFLASLPQAVHLIVVDASEDETPDIIQRERPARTQVLRRRSTITQARQLGAEAALTDWLLFTDADIVFPDGYFDALERVMDAAVVYGPKLSRDRFAAYYRWFGYGQQCSHWLGIPAATGSNLLVRKDALIAVGGFDPALVCNEDSELVWRIKRAGYRIRFEPSLPVYARDHRRLDSGLWRKTCHSVFRCALLYWDLMPARWRGADWGYWSPQQSGRAPGVSRVELEHHHHHH” the entry was “failed”.
The entry for “MPFLFPKFWVMSAPHDTHVSRRLRRGLASACAVVTAIAAFSPAHAAPSPNKAGPMSGSTGRTTVGQLLTPAGQLTTLGDLPLNEALSPDGRYLIVSNNGQGTQSLQVIKTATGKVVQTIPYKSPESLYMGLAFSPDGTHLFASAAGNHKIRTYHFDCGKLVETSAIQMPVVSPKLTKVNLYPAGLAVTNDSKRLVVADQLADAVSVIDLATNKIQTTHIGHRPVWVTLSKDSTKAFVSSQGGADVAEVDITKSQPLATHKINVGFHPNKSVLTPDGKSLYVANGDADTISVVDVASHRQTATIPVNRNGSKLVGANPTGLALSQDGKRLYVTNSGHNEVAVINAATRKVIGDIPTGWYPTQVLAHDGKLSITSAKGLGAGPNNGPGHPNPTDPRDTAENQYSGSMIKGLLSTVNGMTQRPWPS” is “failed”.
For the sequence “MSLTEYVHGYSEREALRLSEQAETLEKLLHHDTVYPPGAKVLEAGCGIGAQTVILAKNNPDAEITSIDISPESLEKARENTEKNGIKNVKFLQANIFSLPFEDSSFDHIFVCFVLEHLQSPEEALKSLKKVLKPGGTITVIEGDHGSCYFHPEGKKAIEAWNCLIRVQAYMKGNSLVGRQIYPLLQESGFEKIRVEPRMVYIDSSKPELVDGFILKTIIPMVEGVKEQSLKMQIIKEEEWEKGIEELHKTAEHGGTFCYTFFKGWGTKEGHHHHHH”, the protein production entry is recorded as “not failed”.
The entry for “MTDAPADAPLDADARRAVKPVICYPNDSLPRPDLALYRAARASARKTGEVLVPPREGRCFEVKAGQFFRISSVEGPQVGDLNLHNLHDLTERFFSGKTRALHGTHVTTGERLWSNLPYLRPMATIIEDTLGWYGIDQYGGSVHDVIGTRCDPYTGNLLAGGHYHHCCHSNLTRALADHTGLPLHEAEMLVHDVLNVFMCTGFTRDTGQYFMKASPVRPGDYLEFFAEIDLLGNLSACPGGDCSSEHSSDTASCHPLLVEIFAPAEGMLGDWPSPSVNGYDRSHGR” is “not failed”; for “MNAKRWVALGIVFALLIVSALAKFTSSQIASTEESSPTFVESLFADTGELTETVIEEGGDDTIAVLSVDGTIQDTGDSGSLFGDAGYDHSFFMQQLEQVRNDDYIQGVLLYVNSPGGGVMESAQIRDKILQIQKERNIPFYVSMGSMAASGGYYISAPADKIFASKETLTGSLGVIMQGYDYSELMKKLGVSDNTIKSGEYKDIMSGTRPMTEDEKKIMQSMIDDSYNEFVKVVAKGRGMSAEKVRKIADGRIYDGRQAKENGLIDEFGYQEDALEALKKEQGLADATVIQYDVPEDFSSLFSVAAQKISGQNADISQLIKLTGTLKAPRMMYLYGE” it is “failed”.
